Results published in patent US20020025923A1.

Biological target: PNAd (peripheral node addressin), MECA-79 purified human tonsil lysate
Assay: precipitation of PNAd with the chimera

percent precipitated: > 90%
B1: L-selectin/IgG chimera (entire extracellular domain of murine L-selectin fused to the Fc domain of human IgG1) (Fc fusion, UniProt P18337 39-332, looked up, not shown: a dimerising Fc or GST)
chain: WTYHYSEKPMNWENARKFCKQNYTDLVAIQNKREIEYLENTLPKSPYYYWIGIRKIGKMWTWVGTNKTLTKEAENWGAGEPNNKKSKEDCVEIYIKRERDSGKWNDDACHKRKAALCYTASCQPGSCNGRGECVETINNHTCICDAGYYGPQCQYVVQCEPLEAPELGTMDCIHPLGNFSFQSKCAFNCSEGRELLGTAETQCGASGNWSSPEPICQVVQCEPLEAPELGTMDCIHPLGNFSFQSKCAFNCSEGRELLGTAETQCGASGNWSSPEPICQETNRSFSKIKEGDYN
